According to the RNAGym collection of RNA variant scans (doi:10.1093/nar/gkz1192):

B1: CPEB3 Ribozyme (parent)
chain: UAACAGGGGGCCACAGCAGAAGCGUUCACGUCGCAGCCCCUGUCAGAUUCUGGUGAAUCUGCGAAUUCUGCUGUAUAUCUC

Variants of: B1
Assay: self-cleavage, relative activity (ratio to wild type); higher = more cleavage; in vitro, sequencing
Summary of the method: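 Barcoded CPEB3 ribozyme mutants, produced by rounds of error-prone PCR, self-cleaved while being transcribed with T7 RNA polymerase for 5 hours at 37°C and during a subsequent 15 min DNase I step before EDTA was added. Sequencing of template-switched cDNA on Illumina gave cleaved and total reads, and DNA sequencing assigned barcodes to variants. Each variant's relative activity is its cleaved/total read fraction divided by the unmutated ribozyme's fraction, averaged across three batches. A variant needed a minimum of 5 reads.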

| Variant | self-cleavage |
| --- | --- |
| UAACAGGGGGCCACAGCAGAAGCGUUCUCGUCGCAGCCCCUGUCAAAUUCUGGUGAAUCUGCGAAUUCUGCUGUAUAUCUC [A28U G46A] | 0.46 |
| UAACAGGGGGCCACAGCAGAAGCGUUCUCGUCGCAGCCCCUGUCAUAUUCUGGUGAAUCUGCGAAUUCUGCUGUAUAUCUC [A28U G46U] | 0.14 |
| UAACAGGGGGCCACAGCAGAAGCGUUCUCGUCGCAGUCCCUGUCAGAUUCUGGUGAAUCUGCGAAUUCUGCUGUAUAUCUC [A28U C37U] | 0.41 |
| UAACAGGGGGCCACAGCAGAAGCGUUCUCGUCGCAGCCCCUGCCAGAUUCUGGUGAAUCUGCGAAUUCUGCUGUAUAUCUC [A28U U43C] | 0.41 |
| UAACAGGGGGCCACAGCAGAAGCGUUCUCGUCGCAGCCCCUGACAGAUUCUGGUGAAUCUGCGAAUUCUGCUGUAUAUCUC [A28U U43A] | 1 |
| UAACAGGGGGCCACAGCAGAAGCGUUCUCGUUGCAGCCCCUGUCAGAUUCUGGUGAAUCUGCGAAUUCUGCUGUAUAUCUC [A28U C32U] | 0.17 |
| UAACAGGGGGCCACAGCAGAAGCGUUCUCGUAGCAGCCCCUGUCAGAUUCUGGUGAAUCUGCGAAUUCUGCUGUAUAUCUC [A28U C32A] | 0.19 |
| UAACAGGGGGCCACAGCAGAAGCGUUCUCGGCGCAGCCCCUGUCAGAUUCUGGUGAAUCUGCGAAUUCUGCUGUAUAUCUC [A28U U31G] | 0.31 |
| UAACAGGGGGCCACAGCAGAAGCGUUCUCGCCGCAGCCCCUGUCAGAUUCUGGUGAAUCUGCGAAUUCUGCUGUAUAUCUC [A28U U31C] | 0.53 |
| UAACAGGGGGCCACAGCAGAAGCGUUCUCGACGCAGCCCCUGUCAGAUUCUGGUGAAUCUGCGAAUUCUGCUGUAUAUCUC [A28U U31A] | 0.41 |
| UAACAGGGGGCCACAGCAGAAGCGUUCUCGUCGCAGCCCCUGUCAGAUGCUGGUGAAUCUGCGAAUUCUGCUGUAUAUCUC [A28U U49G] | 0.11 |
| UAACAGGGGGCCACAGCAGAAGCGUUCUCGUCGCAGCCCCUGUCAGAUCCUGGUGAAUCUGCGAAUUCUGCUGUAUAUCUC [A28U U49C] | 0.31 |
| UAACAGGGGGCCACAGCAGAAGCGUUCUCGUCGCAGCCCCUGUCAGAUACUGGUGAAUCUGCGAAUUCUGCUGUAUAUCUC [A28U U49A] | 0.43 |
| UAACAGGGGGCCACAGCAGAAGCGUUCUCGUCGCAGCCCCUUUCAGAUUCUGGUGAAUCUGCGAAUUCUGCUGUAUAUCUC [A28U G42U] | 0.21 |
| UAACAGGGGGCCACAGCAGAAGCGUUCUCGUCGCAGCCCCUCUCAGAUUCUGGUGAAUCUGCGAAUUCUGCUGUAUAUCUC [A28U G42C] | 0.28 |
| UAACAGGGGGCCACAGCAGAAGCGUUCUCGUCGCAGCCCCUAUCAGAUUCUGGUGAAUCUGCGAAUUCUGCUGUAUAUCUC [A28U G42A] | 0.27 |
| UAACAGGGGGCCACAGCAGAAGCGUUCUCGUCGCAGCCCUUGUCAGAUUCUGGUGAAUCUGCGAAUUCUGCUGUAUAUCUC [A28U C40U] | 0.59 |

| Variant | self-cleavage |
| --- | --- |
| UAACAGGGGGCCACAGCAGAAGCGUUCUCGUCGCAGCCCAUGUCAGAUUCUGGUGAAUCUGCGAAUUCUGCUGUAUAUCUC [A28U C40A] | 0.47 |
| UAACAGGGGGCCACAGCAGAAGCGUUCUCGUCGCAGCCCGUGUCAGAUUCUGGUGAAUCUGCGAAUUCUGCUGUAUAUCUC [A28U C40G] | 0.19 |
| UAACAGGGGGCCACAGCAGAAGCGUUCUCGUCGCAGCCCCUGUCAGAUUCUGGUGAAUCUGCGAAUUCUGCUGUAUAUCUA [A28U C81A] | 0.84 |
| UAACAGGGGGCCACAGCAGAAGCGUUCUCGUCGCAGCCCCUGUCAGAUUCUGGUGAAUCUGCGAAUUCUGCUGUAUAUCUU [A28U C81U] | 0.86 |
| UAACAGGGGGCCACAGCAGAAGCGUUCUCGUCGCAGCCCCUGUCAGAUUCUGGUGAAUCUGCGUAUUCUGCUGUAUAUCUC [A28U A64U] | 0.31 |
| UAACAGGGGGCCACAGCAGAAGCGUUCUCGUCGCAGCCCCUGUCAGAUUAUGGUGAAUCUGCGAAUUCUGCUGUAUAUCUC [A28U C50A] | 0.53 |
| UAACAGGGGGCCACAGCAGAAGCGUUCUCGUCGCAGCCCCUGUCAGAUUGUGGUGAAUCUGCGAAUUCUGCUGUAUAUCUC [A28U C50G] | 0.74 |
| UAACAGGGGGCCACAGCAGAAGCGUUCUCGUCGCAGCCCCUGUCAGAUUUUGGUGAAUCUGCGAAUUCUGCUGUAUAUCUC [A28U C50U] | 0.8 |
| UAACAGGGGGCCACAGCAGAAGCGUUCUCGUCGCAGCCCCUGUCAGAUUCUGGUGAAUCUGCGAAUUCUGUUGUAUAUCUC [A28U C71U] | 0.39 |
| UAACAGGGGGCCACAGCAGAAGCGUUCUCGUCGCAGCCCCUGUCAGAUUCUGGUAAAUCUGCGAAUUCUGCUGUAUAUCUC [A28U G55A] | 0.59 |
| UAACAGGGGGCCACAGCAGAAGCGUUCUGGUCGCAGCCCCUGUCAGAUUCUGGUGAAUCUGCGAAUUCUGCUGUAUAUCUC [A28U C29G] | 0.1 |
| UAACAGGGGGCCACAGCAGAAGCGUUCUUGUCGCAGCCCCUGUCAGAUUCUGGUGAAUCUGCGAAUUCUGCUGUAUAUCUC [A28U C29U] | 0.48 |
| UAACAGGGGGCCACAGCAGAAGCGUUCUCGUCGCAGCCCCUGUCAGAUUCUGGUGAAUCUGCGAAUUCUGCUGUUUAUCUC [A28U A75U] | 0.99 |
| UAACAGGGGGCCACAGCAGAAGCGUUCUCGUCGCAGCCCCUGUCAGAUUCUGGUGAAUCUGCGAAUUCUGCUGUGUAUCUC [A28U A75G] | 0.71 |
| UAACAGGGGGCCACAGCAGAAGCGUUCUCGUCGCAGCCCCUGUCAGAUUCUAGUGAAUCUGCGAAUUCUGCUGUAUAUCUC [A28U G52A] | 0.83 |
| UAACAGGGGGCCACAGCAGAAGCGUUCUCGUCGCAGCCCCUGUCAGAUUCUGGUGAAUCUGCGAAUUCUGCUGUAUUUCUC [A28U A77U] | 0.85 |
| UAACAGGGGGCCACAGCAGAAGCGUUCUCGUCGCAGCCCCUGUCAGAUUCUGGUGAAUCUGCGAAUUCUGCUGUAUGUCUC [A28U A77G] | 0.8 |
